“And” between values parts separate entries of the source, which are not always exact repeats. Equal values may be shown once.
Biological target: recombinant full-length H7 hemagglutinin of A/Anhui/1/2013 (H7N9) influenza virus (influenza A virus A/Anhui/1/2013 (H7N9))
Experiment: […]; 500 ug/ml in PBS, […]

Which stoichiometry N (units (HA molecules per complex)) does the source give for “recombinant full-length H7 hemagglutinin of A/Anhui/1/2013 (H7N9) influenza virus (natural protein)” here?
The stoichiometry N (units (HA molecules per complex)) was 6 and 7 and 8.
